We go through 24 molecules from patent US20250145694A1 (GUANGDONG FEIPENG BIOLOGICAL, published 2025).

Changes are numbered by the printed parent chain.

The labels stand for the following.
B1: Mutation 1-9 (antibody)
heavy: EVQMVESGGGLLKPGGSLKLSCAASGFTFSNYAMSWVRQTPEKRLEWVATISSGGSYSFYPDSVKGRFTISRDNAKNTLYLQMLSLRSEDTAMYYCARRDNYYGSTFMDYWGQGSSVTVSSAKTTPPSVYPLAPGSAAQTNSMVTLGCLVKGYFPEPVTVTWNSGSLSSGVHTFPAVLQSDLYTLSSSVTVPSSTWPSQTVTCNVAHPASSTKVDKKIVPRDCGCKPCICTVPEVSSVFIFPPKPKDVLTITLTPKVTCVVVDISKDDPEVQFSWFVDDVEVHTAQTKPREEQFNSTFRSVSELPIMHQDWLNGKEFKCRVNSAAFPAPIEKTISKTKGRPKAPQVYTIPPPKEQMAKDKVSLTCMITNFFPEDITVEWQWNGQPAENYKNTQPIMDTDGSYFVYSKLNVQKSNWEAGNTFTCSVLHEGLHNHHTEKSLSHSPG
light: DIQMTQTSSSLSASLGDRVTISCRASQDITNYLNWYQQKPDGTIKLLIYYTSRLHSGVSSRFSGSGSGTDYSLTISNLEQEDIATYFCQQGNTLPLTFDTGTKLELKRADAAPTVSIFPPSSEQLTSGGASVVCFLNNFYPKDINVKWKIDGSERQNGVLNSWTDQDSKDSTYSMSSTLTLTKDEYERHNSYTCEATHKTSTSPIVKSFNRNEC
notes: assembled FR/CDR/constant
B2: Mutation 1-10 (antibody)
heavy: B1 heavy with F29Y, T106S
light: B1 light with L54I, N92H
notes: assembled FR/CDR/constant
B3: Mutation 1-15 (antibody)
heavy: B1 heavy with F59Y, Y103F, T106S
light: B1 light with D28E, L54I
notes: assembled FR/CDR/constant
B4: Mutation 1-28 (antibody)
heavy: B1 heavy with F29Y, F59Y, Y103P
light: B1 light with N92H
notes: assembled FR/CDR/constant
B5: Mutation 1-26 (antibody)
heavy: B1 heavy with F29Y
light: B1 light with D28E, L54I, N92H
notes: assembled FR/CDR/constant
B6: Mutation 1-12 (antibody)
heavy: B1 heavy with F29Y, F59Y, Y103P
light: B1 light with D28E, N92H
notes: assembled FR/CDR/constant
B7: Mutation 1-20 (antibody)
heavy: B1 heavy with F29Y, F59Y, Y103F, T106S
light: B1 light
notes: assembled FR/CDR/constant
B8: Mutation 1-19 (antibody)
heavy: B1 heavy with F59Y, Y103F
light: B1 light with D28E, N92H
notes: assembled FR/CDR/constant
B9: Mutation 1-11 (antibody)
heavy: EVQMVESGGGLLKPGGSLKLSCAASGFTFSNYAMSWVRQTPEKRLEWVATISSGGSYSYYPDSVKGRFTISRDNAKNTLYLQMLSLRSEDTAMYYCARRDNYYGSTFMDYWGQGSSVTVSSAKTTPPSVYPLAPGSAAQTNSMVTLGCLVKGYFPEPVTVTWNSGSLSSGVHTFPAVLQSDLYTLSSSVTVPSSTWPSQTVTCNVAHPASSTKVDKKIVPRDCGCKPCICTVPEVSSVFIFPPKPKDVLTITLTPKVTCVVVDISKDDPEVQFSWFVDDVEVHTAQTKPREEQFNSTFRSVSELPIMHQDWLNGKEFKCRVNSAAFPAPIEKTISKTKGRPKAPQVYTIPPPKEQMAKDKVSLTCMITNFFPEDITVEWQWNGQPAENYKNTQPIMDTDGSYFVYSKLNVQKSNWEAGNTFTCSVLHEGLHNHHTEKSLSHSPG
light: B1 light with L94I
notes: assembled FR/CDR/constant
B10: Mutation 1-27 (antibody)
heavy: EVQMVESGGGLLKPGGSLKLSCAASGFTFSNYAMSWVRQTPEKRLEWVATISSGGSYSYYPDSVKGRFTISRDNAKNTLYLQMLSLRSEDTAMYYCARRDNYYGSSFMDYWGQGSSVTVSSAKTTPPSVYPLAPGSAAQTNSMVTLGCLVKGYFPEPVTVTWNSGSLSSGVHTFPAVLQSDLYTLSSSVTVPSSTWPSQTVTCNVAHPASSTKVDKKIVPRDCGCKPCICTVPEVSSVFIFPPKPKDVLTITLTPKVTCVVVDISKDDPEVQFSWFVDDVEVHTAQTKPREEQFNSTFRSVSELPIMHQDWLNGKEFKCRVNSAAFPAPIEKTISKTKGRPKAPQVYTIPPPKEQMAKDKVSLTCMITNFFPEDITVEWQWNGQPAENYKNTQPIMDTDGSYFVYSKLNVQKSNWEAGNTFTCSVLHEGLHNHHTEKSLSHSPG
light: B1 light with L94I
notes: assembled FR/CDR/constant
B11: Mutation 1-31 (antibody)
heavy: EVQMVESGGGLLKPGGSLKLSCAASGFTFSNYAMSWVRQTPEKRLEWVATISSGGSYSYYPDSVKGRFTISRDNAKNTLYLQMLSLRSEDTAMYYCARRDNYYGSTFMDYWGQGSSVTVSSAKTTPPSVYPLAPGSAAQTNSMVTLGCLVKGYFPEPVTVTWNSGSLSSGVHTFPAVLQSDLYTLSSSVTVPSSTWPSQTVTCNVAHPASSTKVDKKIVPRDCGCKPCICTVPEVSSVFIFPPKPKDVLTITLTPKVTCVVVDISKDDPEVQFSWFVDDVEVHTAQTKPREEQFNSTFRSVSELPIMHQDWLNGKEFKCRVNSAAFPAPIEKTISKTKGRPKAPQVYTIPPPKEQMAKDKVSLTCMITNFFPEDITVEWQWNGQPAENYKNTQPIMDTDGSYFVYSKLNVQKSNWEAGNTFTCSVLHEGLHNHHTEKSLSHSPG
light: B1 light with L54I
notes: assembled FR/CDR/constant
B12: Mutation 1-21 (antibody)
heavy: B1 heavy
light: B1 light with L54I, N92H
notes: assembled FR/CDR/constant
B13: Mutation 1-22 (antibody)
heavy: B1 heavy with F29Y, T106S
light: B1 light with L54I, N92H, L94I
notes: assembled FR/CDR/constant
B14: Mutation 1-14 (antibody)
heavy: B1 heavy with F29Y, Y103F
light: B1 light with N92H, L94I
notes: assembled FR/CDR/constant
B15: Mutation 1-30 (antibody)
heavy: B1 heavy with F29Y, Y103F, T106S
light: B1 light with D28E, N92H, L94I
notes: assembled FR/CDR/constant
B16: Mutation 1-33 (antibody)
heavy: B1 heavy with Y103P
light: B1 light with N92H, L94I
notes: assembled FR/CDR/constant
B17: Mutation 1-17 (antibody)
heavy: B1 heavy with T106S
light: B1 light with N92H, L94I
notes: assembled FR/CDR/constant
B18: Mutation 1-18 (antibody)
heavy: B1 heavy with F29Y, Y103P, T106S
light: B1 light with D28E, L54I
notes: assembled FR/CDR/constant
B19: Mutation 1-24 (antibody)
heavy: B1 heavy with F29Y, F59Y, Y103F
light: B1 light with D28E, L54I, N92H, L94I
notes: assembled FR/CDR/constant
B20: Mutation 1-25 (antibody)
heavy: B1 heavy with Y103F, T106S
light: B1 light
notes: assembled FR/CDR/constant
B21: Mutation 1-29 (antibody)
heavy: B1 heavy with Y103F, T106S
light: B1 light with D28E, L54I, L94I
notes: assembled FR/CDR/constant
B22: Mutation 1-23 (antibody)
heavy: B1 heavy with F59Y, Y103P
light: B1 light with D28E, L54I, N92H, L94I
notes: assembled FR/CDR/constant
B23: Mutation 1-32 (antibody)
heavy: B1 heavy with F29Y, F59Y, T106S
light: B1 light with L54I, L94I
notes: assembled FR/CDR/constant
B24: Mutation 1-13 (antibody)
heavy: B1 heavy with Y103P, T106S
light: B1 light with D28E, L54I, L94I
notes: assembled FR/CDR/constant

The Kd is the constant that tells how readily two partners part at equilibrium. One may read the koff as the first-order rate constant of dissociation. The kon is the second-order rate constant of association.

For this experiment, the target named is T1, CTNI quality control recombinant antigen (human, UniProt P19429 1-210, limits assumed).
T1 construct: Recombinant antigen produced by the applicant; also called CTNI quality control recombinant protein (antigen produced by the company); cardiac troponin I
T1 sequence (P19429 whole entry): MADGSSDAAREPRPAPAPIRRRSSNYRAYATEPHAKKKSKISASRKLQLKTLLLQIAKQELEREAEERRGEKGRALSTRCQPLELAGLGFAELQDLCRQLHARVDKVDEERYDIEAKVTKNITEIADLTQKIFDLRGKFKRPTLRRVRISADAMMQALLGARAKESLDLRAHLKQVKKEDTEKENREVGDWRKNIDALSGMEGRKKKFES
As to the kind of experiment: BLI, antibody on AMC sensor, cTnI in solution. The protocol:
With an AMC sensor, the purified antibody was diluted to 10 μg/ml with PBST, and CTNI quality control recombinant protein (antigen produced by the company) was gradient diluted with PBST to 769.2 nmol/ml, 384.6 nmol/ml, 192.3 nmol/ml, 96.2 nmol/ml, 48.1 nmol/ml, 24 nmol/ml, 12 nmol/ml, and 0 nmol/ml.
In general terms: In BLI a coated tip is dipped into the sample, and binding shifts an interference pattern.
For the molecule B1, the Kd was 8.6 nM, the koff worked out at 0.000184 s⁻¹ and the kon was 21400 M⁻¹ s⁻¹.

Take B2: the dissociation constant (Kd) was 5.05 nM, the koff was found to be 0.000346 s⁻¹ and the kon amounted to 68500 M⁻¹ s⁻¹.

B3: the Kd came to 3.8 nM, the koff came out at 0.000145 s⁻¹ and the kon stood at 38100 M⁻¹ s⁻¹.

For B4, the Kd was found to be 3.68 nM, the koff worked out at 4.31e-05 s⁻¹ and the kon came out at 11700 M⁻¹ s⁻¹.

Take B5: the equilibrium dissociation constant (Kd) amounted to 1.38 nM, the koff is 3.48e-05 s⁻¹ and the kon stood at 25200 M⁻¹ s⁻¹.

As for B6, the Kd is 1.52 nM, the koff turned out to be 0.000135 s⁻¹ and the kon came to 88600 M⁻¹ s⁻¹.

For B7, the Kd turned out to be 2.87 nM, the koff amounted to 0.000172 s⁻¹ and the kon worked out at 59800 M⁻¹ s⁻¹.

Regarding B8, the Kd came out at 8.19 nM, the koff amounted to 0.000772 s⁻¹ and the kon came to 94300 M⁻¹ s⁻¹.

For the molecule B9, the Kd came out at 4.4 nM, the koff was found to be 4.75e-05 s⁻¹ and the kon stood at 10800 M⁻¹ s⁻¹.

B10: the Kd was 6.3 nM, the off-rate constant (koff) stood at 0.000501 s⁻¹ and the kon turned out to be 79600 M⁻¹ s⁻¹.

On to B11, for which the Kd turned out to be 8.73 nM, the koff stood at 0.000744 s⁻¹ and the kon amounted to 85200 M⁻¹ s⁻¹.

With B12, the Kd was 9.55 nM, the koff came out at 0.000632 s⁻¹ and the kon turned out to be 66200 M⁻¹ s⁻¹.

With B13, the Kd stood at 9.07 nM, the koff was 0.000312 s⁻¹ and the kon was 34400 M⁻¹ s⁻¹.

As to B14, the Kd is 7.76 nM, the koff came to 0.000498 s⁻¹ and the kon amounted to 64200 M⁻¹ s⁻¹.

Regarding B15, the Kd came out at 5.76 nM, the koff came to 0.000163 s⁻¹ and the kon was determined as 28300 M⁻¹ s⁻¹.

For B16, the Kd is 0.979 nM, the koff was 0.000521 s⁻¹ and the kon is 532000 M⁻¹ s⁻¹.

Turning to B17, the Kd came out at 9.22 nM, the koff came to 0.000336 s⁻¹ and the kon is 36400 M⁻¹ s⁻¹.

Turning to B18, the Kd turned out to be 4.4 nM, the koff is 0.000253 s⁻¹ and the kon was 57500 M⁻¹ s⁻¹.

Take B19: the Kd turned out to be 5.37 nM, the koff came to 0.000248 s⁻¹ and the kon amounted to 46100 M⁻¹ s⁻¹.

On to B20, for which the Kd was found to be 5.36 nM, the koff was determined as 0.000364 s⁻¹ and the kon was 67900 M⁻¹ s⁻¹.

In the case of B21, the Kd amounted to 7.59 nM, the koff is 0.000197 s⁻¹ and the kon is 26000 M⁻¹ s⁻¹.

Turning to B22, the Kd is 4.31 nM, the koff amounted to 0.000336 s⁻¹ and the kon is 77900 M⁻¹ s⁻¹.

For the molecule B23, the Kd was 8.38 nM, the koff is 0.000266 s⁻¹ and the kon was 31700 M⁻¹ s⁻¹.

For the molecule B24, the Kd was 4.12 nM, the koff was 0.000354 s⁻¹ and the kon was found to be 86000 M⁻¹ s⁻¹.
